Reference: patent publication US6399344B1, “Isolated proteins having retinol dehydrogenase activity, and which associate with retinol binding receptors” (Ludwig Institute for Cancer Research, priority 1994, dated 2002)

What was measured:
[1] = target: T1, p63 (Bos taurus, UniProt Q28175); test: Immunoprecipitation of radiolabelled RPE-membrane proteins with mAb A52 / rabbit antisera to p63, SDS-PAGE; format: binding; details: solubilized bovine RPE membranes, immunoprecipitation with mAb A52 or rabbit antisera to p63
T1 construct: RPE-membrane proteins were then solubilized in phosphate-buffered saline; from tissue; host or cells: bovine retinal pigment epithelium (RPE) membrane fraction, CHAPS-solubilized, gel-filtered, 125I-labelled
T1 sequence (Q28175 2-533 limits assumed): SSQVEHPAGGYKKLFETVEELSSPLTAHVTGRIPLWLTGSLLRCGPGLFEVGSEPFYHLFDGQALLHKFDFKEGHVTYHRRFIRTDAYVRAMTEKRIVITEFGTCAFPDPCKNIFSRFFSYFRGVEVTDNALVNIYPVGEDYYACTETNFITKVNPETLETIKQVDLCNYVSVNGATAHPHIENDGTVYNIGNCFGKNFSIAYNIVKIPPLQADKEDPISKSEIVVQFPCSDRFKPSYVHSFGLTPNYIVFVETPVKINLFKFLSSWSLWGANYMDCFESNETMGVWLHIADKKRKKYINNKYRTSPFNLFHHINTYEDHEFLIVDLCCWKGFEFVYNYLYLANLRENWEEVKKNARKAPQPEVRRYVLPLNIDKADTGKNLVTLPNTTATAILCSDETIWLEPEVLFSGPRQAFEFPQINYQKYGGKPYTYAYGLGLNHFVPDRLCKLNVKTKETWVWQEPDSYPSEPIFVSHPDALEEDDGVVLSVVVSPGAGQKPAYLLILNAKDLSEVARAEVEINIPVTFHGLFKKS
Description: Bovine RPE-cells were isolated and membrane fractions were prepared as described in Bavik et al, J. Biol. Chem. 266:[…] (1991) incorporated by reference. RPE-membrane proteins were then solubilized in phosphate-buffered saline (PBS) (20 mM sodium phosphate, PH 7.2, containing 150 mM NaCl), containing 1% 3-[(3-cholamido-propyl) -dimethylammonio] -1-propane sulfonic acid (CHAPS) at 1 mg of total membrane protein/ml of buffer. Remaining material was removed by ultracentrifugation at 100,000×g for 1 hour. Next, 500 ul aliquots of the solubilized membranes were subjected to gel filtration on a Sepharose 6 column equilibrated in PBS containing 1% CHAPS. The column was operated at a flow rate of 0.2 ml/min and 500 ul fractions collected. Proteins eluted in fractions corresponding to globular proteins of Mr 150,000 to 400,000 were then radiolabelled with Na^125I using the well-known Chloramin T procedure. […]
Aliquots of the radiolabelled proteins were then diluted in PBS containing 1% CHAPS and 1% bovine serum albumin and subsequently subjected to immunoprecipitation using the mAb A52 to p63 (5 ug per incubation) or using two polyclonal rabbit antisera to p63 (3 ul of serum per incubation) See Bavik et al., J. Biol. Chem. 267:23035-23042 (1992). Non-specific immunoprecipitation was monitored in parallel incubations using an unrelated mAb and preimmune rabbit serum. […]

[2] = Retinol dehydrogenase activity of p32 in microsomal fractions of transfected COS-cells, HPLC; format: biochemical, bovine
Description: Specifically, the EcoRI—insert of pλ321 was cloned into the EcoR1-digested eucaryotic expression vector pSG5. See Green et al., Nucl. Acid Res. 16:39 (1988). COS-cells were maintained in Dulbecco's minimal essential medium supplemented with 10% fetal bovine serum, 2mM glutamine and antibiotics. The cells were seeded into 60 mm petri dishes (4×10^5 cells per dish) and transfected with 5 ug of plasmid per dish using DEAE dextran. Control cells were transfected with equal amounts of the parental vector alone. After treatment with 10% DMSO for 2 minutes, the cells were incubated for 72-96 hours, and then harvested by scraping the dishes with a rubber policeman, and the cells thereafter collected by low speed centrifugation. The collected cell pellets were next resuspended in hypotonic buffer (10 mM Tris-HCl, pH 7.5 containing 1mM phenyl-methylsufonyl fluoride), put on ice for 20 minutes, and then homogenized using a Dounce homogenator. Unbroken cells and debris were removed by centrifugation (3000×g)for 15 minutes. Microsomes were subsequently collected by ultra-centrifugation at 100,000×g for 1 hour; membrane pellets were stored at −80° C. until further analyzed.
Next, some of the enzymatic properties of p32 expressed in COS-cells were determined in a manner similar to that as described in the study of 11-cis-retinol dehydrogenase activity in microsomal fractions of RPE cells. See Saari et al., Anal. Biochem 213:[…] (1993).
In particular, enzymatic activity of p32 was assayed by incubating the microsomal fractions from the aforementioned transfected cells, and from control cells lacking p32, with varying combinations of the different stereo isomeric substrates, i.e., 11-cis-retinol or all-trans-retinol, in the presence of either cofactor NAD+ or NADP.
To assay for p32 activity in transfected cells, the final concentration of 11-cis-retinol and all-trans-retinol (obtained from Sigma Chemical Co.) in the incubations was reduced to 100 uM. Twenty ug of total membrane protein from COS-cells expressing p32 or from control cells were used in each incubation, and thereafter a 30 minute incubation at 37° C. in the presence or absence of NAD+ or NADP followed. Reaction mixtures were then extracted with n-hexane, and organic phases removed and dried under argon. The dried organic phases were then separately dissolved in ethanol and aliquots were analyzed on a normal phase silica HPLC column developed with n-hexane containing 4% dioxane at 1 ml per minute. See Saari et al. J. Biol. Chem. 257:13329-13333 (1982). Effluent was monitored at 330 nm. Under these conditions, 11-cis-retinaldehyde and 11-cis retinol eluted at 7 minutes and 22.5 minutes, respectively, and all-trans-retinaldehyde and all-trans retinol eluted at 8 minutes and 23 minutes, respectively.

[3] = Retinol dehydrogenase activity in membranes of baculovirus-infected Sf9 cells, reversed phase HPLC; format: biochemical, murine
Description: In order to generate a protein from a eukaryotic system, a 1.2 kilobase EcoRI fragment of the SEQ ID NO: 35 plasmid described supra was subcloned into a baculovirus expression vector, using known methods. Then, the vector was used to transfect Spodoptera frugiperda (“Sf9”) cells, again using known methods. Recombinant baculoviruses were then amplified by several rounds of amplification, and were then used in fresh Sf9 cells. A parallel set of experiments were also carried out, but using recombinant virus containing an unrelated gene, whose expression product had no retinol dehydrogenase activity.
Expressed protein was then assessed for enzyme activity. In brief, membranes equivalent to 25 ug of total membrane protein from infected cells were incubated in phosphate buffered saline (PBS), containing 100 uM of 9-cis retinol, or all-trans retinol. Final volumes of incubated materials were 200 ul. Either cofactor NAD+ or cofactor NADP was also added, to a final concentration of 200 uM. The mixture was incubated for 20 minutes at 37° C., after which alkaline ethanol was added. The mixture was then extracted with 2.0 ml of n-hexane. The organic phase was then removed and dried under argon. Dried phases were dissolved in ethanol, and aliquots were analyzed by reversed phase HPLC, using a C18 column, and a mobile phase of acetonitrile/water (85:15 v/v). Elution was at 1.0 ml/min, with effluent being monitored at 350 nm.

[4] = experiments not elaborated upon

B1: p32: 32 kDa membrane associated bovine RPE protein that complexes with p63; stereo specific 11-cis-retinol dehydrogenase (SEQ ID NO: 10) (protein)
chain: MWLPLLLGVLLWAALWLLRDRQCLPASDAFIFITGCDSGFGRLLALRLDQRGFRVLASCLTPSGAEDLQRVASSRLHTTLLDVTDPQSIRQAVKWVETHVGEAGLFGLVNNAGVAGIIGPTPWQTREDFQRVLNVNTLGPIGVTLALLPLLLQARGRVINITSVLGRLAANGGGYCVSKFGLEAFSDSLRRDVAPFGVRVSIVEPGFFRTPVTNLETLEDTLQACWARLPPATQALYGEAFLTKYLRVQQRIMNMICDPDLAKVSRCLEHALTARHPRTRYSPGWDAKLLWLPASYLPARLVDAVLAWVLPKPAQTVY
[1]
  coprecipitation with p63 (binding to p63): coprecipitated
[2]; 100 uM 11-cis-retinol, cofactor NAD+, 30 minute at 37° C.
  11-cis-retinol dehydrogenase activity (formation of 11-cis-retinaldehyde): active
[2]; 100 uM all-trans-retinol, 30 minute at 37° C.
  formation of all-trans retinaldehyde from all-trans retinol: no significant formation of all-trans retinaldehyde
[2]; cofactor NADP
  11-cis-retinol dehydrogenase activity: not enzymatically-active
[2]; further experiments, no details
  9-cis retinol dehydrogenase activity: has 9-cis retinol dehydrogenase activity

B2: protein encoded by SEQ ID NO: 35: murine liver membrane associated protein of about 34 kilodaltons with 9-cis, 11-cis and 13-cis retinol dehydrogenase activity (protein)
chain: MWLPLLLGALLWAVLWLLRDRQSLPASDAFIFITGCDSGFGRLLALQLDQKGFQVLAGCLTPSGAEDLQQMASSRLHTTLLDITDPQNVQQVAKWVKTRVGETGLFGLVNNAGVAGIIGPTPWLTQDDFQRVLSVNTLGPIGVTLALLPLLQQARGRVVNITSVLGRIAANGGGYCVSKFGLEAFSDSLRRDMAPFGVQVSIVEPGFFRTPVTNLESLESTLKACWARLPPAIQAHYGEAFLDTYLRVQRRIMNLICDPELTKVTSCLEHALTARHPRTRYSPGWDAKLLWLPASYLPARVVDAVLTWILPRPAQSVS
[3]; 100 uM 9-cis retinol, 20 minutes at 37° C.
  oxidation of 9-cis retinol, efficiency relative to mock infected cells: 8-10 times
[3]; 100 uM 9-cis retinol, cofactor NADP 200 uM
  9-cis retinaldehyde formation: Background levels
[3]; [4]
  11-cis RDH activity: observed
  13-cis RDH activity: 13-cis RDH activity
